Laboratory results as given in paper PMC2699591.

Target: GST-LB3-coil2 (Xenopus)
Test: biosensor binding studies

Kd: 50 µM
Substance: 6His-tagged full-length Nudel (6His-Nudel, 1-345 aa) (natural protein)
